No end group written: not given here.
Columns and labels:
[1] = biological target: T1, Cdc42^2-178 (C-terminally truncated Cdc42 lacking its geranylgeranylation motif) (UniProt Q05062 2-178); experiment: FP; GDP-loaded Cdc42
[2] = biological target: T1, Cdc42^2-178 (C-terminally truncated …); experiment: FP; GMPPNP-loaded Cdc42

T1 sequence (Q05062 2-178): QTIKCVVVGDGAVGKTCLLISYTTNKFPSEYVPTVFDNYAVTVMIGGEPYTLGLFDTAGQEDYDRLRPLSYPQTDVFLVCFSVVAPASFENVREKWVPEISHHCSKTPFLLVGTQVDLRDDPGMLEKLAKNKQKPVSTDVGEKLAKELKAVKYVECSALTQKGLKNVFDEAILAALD

Kd [1]: 1.12 mM
Kd [2]: 264 µM
Binder: QISTPSDFMHIVHMGPAPVMELQQNFIDLQ (also: FITC label, position not given here) [FITC-labeled CRIB peptide of C. elegans MRCK1 (residues 1543-1572)]

— article doi:10.1101/2022.03.11.483953 (2022)
